Measured values as given in article PMC5674511, “Increase of enzyme activity through specific covalent modification with fragments” (Chemical Science, 2017).

Assays:
[1] = tested on: T1, CC(=O)N[C@H]1[C@H](Oc2ccc3c(C)cc(=O)oc3c2)O[C@H](CO)[C@@H](O)[C@@H]1O; experiment: fluorescence, 4MU release, Michaelis-Menten; type: biochemical, Bacteroides thetaiotaomicron
T1 construct: recombinant purified enzyme

[2] = tested on: T1, CC(=O)N[C@H]1[C@H](Oc2ccc3c(C)cc(=O)oc3c2)O[C@H](CO)[C@@H](O)[C@@H]1O; experiment: fluorescence, 4MU release, Michaelis-Menten; type: biochemical, Bacteroides thetaiotaomicron; conditions: unmodified BtGH84_TM (no tethered fragment)
Source text: fluorescence, 4MU release, Michaelis-Menten on BtGH84

BtGH84 (Bacteroides thetaiotaomicron VPI-5482; C441S/C675S/Y158F/Y571C)
Km ([1]; unmodified BtGH84_QM): 11.215 ± 3.274 mM | kcat ([1]; unmodified BtGH84_QM): 77 ± 15 s⁻¹

BtGH84 (Bacteroides thetaiotaomicron VPI-5482; C441S/C675S/Y571C)
Km [2]: 4.68 ± 0.22 mM | kcat [2]: 127 ± 6 s⁻¹ | kcat/Km [2]: 27200 ± 2460 M⁻¹ s⁻¹

BtGH84 (Bacteroides thetaiotaomicron VPI-5482; Y158F)
Km ([1]; unmodified BtGH84_Y137F): 6.61 ± 1.282 mM | kcat ([1]; unmodified BtGH84_Y137F): 87 ± 4 s⁻¹
